Experimental data as given in patent publication US20260116920A1 (PEPTIDREAM, published 2026).
Starred links: 1 amine or outer side, 2 acyl side, 3 side chain; linkers in the order of their positions; H or OH if unused. Positions of bridges follow the written chain, without caps; N, C: chain ends. Non-standard residues stand in square brackets, D forms with d. Primed or numbered codes have the meaning given here. No end group written: not given here. E(PEG8Me) = (S)-30-amino-27-oxo-2,5,8,11,14,17,20,23-octaoxa-26-azahentriacontane-31-oic acid, COCCOCCOCCOCCOCCOCCOCCOCCNC(=O)CC[C@H](N[*:1])C(=O)[*:2]; E(PEG4Me) = (S)-18-amino-15-oxo-2,5,8,11-tetraoxa-14-azanonadecane-19-oic acid, COCCOCCOCCOCCNC(=O)CC[C@H](N[*:1])C(=O)[*:2]; F4aao = (S)-2-amino-3-(4-(carboxymethoxy)phenyl)propanoic acid, O=C([C@H](Cc1ccc(OCC(=O)[*:3])cc1)N[*:1])[*:2]; Phe(4-OMe)″ = (S)-2-amino-3-(4-methoxyphenyl)propanoic acid (F4OMe), COc1ccc(C[C@H](N[*:1])C(=O)[*:2])cc1; Phe(4-OMe) = F4OMe = (S)-2-amino-3-(4-methoxyphenyl)propanoic acid, COc1ccc(C[C@H](N[*:1])C(=O)[*:2])cc1; E(NHdPEG1Me) = N5-(1,3-dimethoxypropan-2-yl)-L-glutamine, COCC(COC)NC(=O)CC[C@H](N[*:1])C(=O)[*:2]; dkCOmeglumine = N6-(methyl((2S,3R,4R,5R)-2,3,4,5,6-pentahydroxyhexyl)carbamoyl)-D-lysine; Trp(1-CH2CO) = O=C([C@H](Cc1cn(CC(=O)[*:3])c2ccccc12)N[*:1])[*:2]; Ala(1-CH2CO2H-4-piperidyl) = N[C@@H](CC1CCN(CC(=O)O)CC1)C(=O)O; Trp(5-Cl) = N[C@@H](Cc1c[nH]c2ccc(Cl)cc12)C(=O)O; Nle(6-morpholino) = N[C@@H](CCCCN1CCOCC1)C(=O)O; Phe(3-COOH) = N[C@@H](Cc1cccc(C(=O)O)c1)C(=O)O; NMePhe(3-Cl) = CN[C@@H](Cc1cccc(Cl)c1)C(=O)O; NMePhe(4-F) = CN[C@@H](Cc1ccc(F)cc1)C(=O)O; NMeW = CN[C@@H](Cc1c[nH]c2ccccc12)C(=O)O; PEG8 = NCCOCCOCCOCCOCCOCCOCCOCCOCCC(=O)O; Lys(N3) = [N-]=[N+]=NCCCC[C@H](N)C(=O)O; NMeY = CN[C@@H](Cc1ccc(O)cc1)C(=O)O; NMeR = CN[C@@H](CCCNC(=N)N)C(=O)O; NMeF = CN[C@@H](Cc1ccccc1)C(=O)O; 3Pal = N[C@@H](Cc1cccnc1)C(=O)O; 4Pal = N[C@@H](Cc1ccncc1)C(=O)O

Legend:
[1] = molecular target: T1, human transferrin receptor (hTfR) (human, UniProt P02786 89-760); assay: SPR; A = KD <1 nM
T1 construct: used as 0.5 uM hTfR dimer solution, immobilised on an NTA sensor chip (Ni capture plus EDC/NHS coupling); also called human TfR; TfR1
T1 sequence (P02786 89-760 limits assumed): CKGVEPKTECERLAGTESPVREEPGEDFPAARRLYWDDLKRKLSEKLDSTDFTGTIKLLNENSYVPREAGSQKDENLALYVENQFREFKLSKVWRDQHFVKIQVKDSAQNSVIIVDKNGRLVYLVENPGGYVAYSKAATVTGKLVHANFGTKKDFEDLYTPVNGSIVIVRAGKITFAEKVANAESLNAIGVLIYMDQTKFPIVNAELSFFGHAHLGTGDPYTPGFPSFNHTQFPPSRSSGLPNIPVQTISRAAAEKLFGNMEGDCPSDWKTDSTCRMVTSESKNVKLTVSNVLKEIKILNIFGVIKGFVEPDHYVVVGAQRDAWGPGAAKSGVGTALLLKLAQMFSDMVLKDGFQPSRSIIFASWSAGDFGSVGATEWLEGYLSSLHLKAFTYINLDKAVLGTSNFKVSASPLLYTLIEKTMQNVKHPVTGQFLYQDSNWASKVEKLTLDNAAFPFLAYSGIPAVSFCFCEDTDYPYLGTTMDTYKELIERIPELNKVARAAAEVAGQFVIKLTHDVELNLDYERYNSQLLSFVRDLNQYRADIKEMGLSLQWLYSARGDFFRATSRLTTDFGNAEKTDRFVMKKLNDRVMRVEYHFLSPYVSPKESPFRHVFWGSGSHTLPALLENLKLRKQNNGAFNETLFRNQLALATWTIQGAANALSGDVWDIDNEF
Procedure: NTA sensor chip (Global Life Sciences Technologies Japan K.K.) was inserted into BiacoreT200 (Global Life Sciences Technologies Japan K.K.), then the priming operation was performed three times by using running buffer containing: 10 mM HEPES pH 8.0 (Nacalai Tesque, Inc.), 150 mM NaCl (Nacalai Tesque, Inc.), 0.05% Tween 20 (Nacalai Tesque, Inc.), 0.1% BSA (SIGMA-ALDRICH) and 1.0% DMSO (FUJIFILM Wako Pure Chemical Corporation), and equilibrated at a flow rate of 30 μL/min. 350 mM EDTA solution was reacted at a flow rate of 10 μL/min for 60 seconds, 0.5 mM […] solution (Kishida Chemical Co., Ltd.) was reacted at a flow rate of 10 μL/min for 60 seconds, and then the NTA sensor chip was washed with 3 mM EDTA solution (Nacalai Tesque, Inc.) at a flow rate of 10 μL/min for 60 seconds. After mixing 50 μL each of 60 mM EDC solution (Global Life Science Technologies Japan K.K.) and 650 mM NHS solution (Global Life Science Technologies Japan K.K.), the reaction was carried out at a flow rate of 10 μL/min for 420 seconds. 150 μL of 0.5 μM hTfR dimer solution was prepared by dilution with running buffer and reacted at a flow rate of 10 μL/min for 300 seconds to immobilize hTfR on the NTA sensor chip. For the human transferrin receptor (hTfR), recombinant hTfR described in Example 2 of WO2018/124121 was used. After immobilization, capping was performed by reacting with 1.0 M ethanolamine solution (Global Life Sciences Technologies Japan K.K.) at a flow rate of 10 μL/min for 420 seconds. Peptide lysate prepared in DMSO solution to 10 mM was diluted with running buffer to be a final concentration of 10 μM peptide lysate, then peptide solutions of 100 nM, 50 nM, 25 nM, 10 nM, and 5 nM were prepared. Using the above samples, the kinetics of the peptide against hTfR was obtained by SPR measurement.
The kinetic evaluation model was single-cycle kinetics, and curve fitting was performed using Biacore T200 Evaluation Software Version 3.0 (Global Life Science Technologies Japan K.K.). The binding of the peptide to hTfR was evaluated by performing curve fitting on the obtained sensorgram by least squares method and obtaining the KD value.

[2] = molecular target: T1, human transferrin receptor (hTfR); assay: SPR; B = KD 1-100 nM
Procedure, shortened: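 Recombinant hTfR dimer immobilised on Ni-NTA chip with EDC/NHS coupling; running buffer 10 mM HEPES pH 8.0, 150 mM NaCl, 0.05% Tween 20, 0.1% BSA, 1.0% DMSO. Peptides injected at 5–100 nM in single-cycle kinetics; KD from least-squares sensorgram fitting.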

| KD [1] | KD [2] | further results | Binder |
| --- | --- | --- | --- |
| < 1 nM | – | – | {CH2CO}-AV[NMePhe(3-Cl)]VWNY[F4aao]II[E(PEG8Me)]RF[NMeY]C-NH2 (thioether N-15; also: linker PEG4c, place not given here) [849_0397] |
| < 1 nM | – | – | {CH2CO}-AV[NMePhe(3-Cl)]VWNY[F4aao]II[E(NHdPEG1Me)]R[Phe(3-COOH)][NMeY]C-NH2 (thioether N-15; also: linker PEG4c, place not given here) [849_0399] |
| < 1 nM | – | – | {CH2CO}-AV[NMePhe(3-Cl)]V[Trp(1-CH2CO)]NY[F4aao]II[E(PEG4Me)][Nle(6-morpholino)]F[NMeY]C-NH2 (thioether N-15; also: linker PEG4c, attachment site not given here) [849_0404] |
| < 1 nM | – | – | {CH2CO}-AV[NMeF]V[Trp(5-Cl)]NYYIIRRFYC-NH2 (thioether N-15; not fully specified (residue 14); also: linker PEG4c, place not given here) [894_0250] |
| < 1 nM | – | – | {CH2CO}-AV[NMePhe(4-F)]V[Trp(5-Cl)]NYYIIRRFYC-NH2 (thioether N-15; not fully specified (residue 14); also: linker PEG4c, place not given here) [894_0254] |
| < 1 nM | – | – | {CH2CO}-AV[NMePhe(3-Cl)]VWNY[Phe(4-OMe)]IIKRFYC-NH2 (thioether N-15; not fully specified (residue 14); also: linker PEG4c) [894_0281] |
| < 1 nM | – | – | {CH2CO}-AV[NMeF]V[Trp(5-Cl)]NY[Phe(4-OMe)]IIRRYYC-NH2 (thioether N-15; not fully specified (residue 14); also: linker PEG4c) [894_0289] |
| < 1 nM | – | – | {CH2CO}-AV[NMePhe(3-Cl)]VWNY[Phe(4-OMe)]IIRRYYC-NH2 (thioether N-15; not fully specified (residue 14); also: linker PEG4c) [894_0291] |
| < 1 nM | – | – | {CH2CO}-AV[NMePhe(3-Cl)]VWNY[Phe(4-OMe)″]IIRR[4Pal][NMeY]C-NH2 (thioether N-15; also: linker PEG4c) [894_0317] |
| – | – | binding result [1]: binds | {CH2CO}-AV[NMePhe(3-Cl)]V[Trp(1-CH2CO)]NY[F4aao]II[Ala(1-CH2CO2H-4-piperidyl)]RF[NMeY]C-NH2 (thioether N-15; also: linker PEG4c, place not given here) [894_0386] |
| – | 1 to 100 nM | – | {CH2CO}-AV[NMePhe(3-Cl)]VWNY[3Pal]IIRR[4Pal][NMeY]CG-{dkCOmeglumine-dkCOmeglumine-dkCOmeglumine-dS-dS-Lys(N3)-NH2} (thioether N-15) [894_3192] |
| – | 1 to 100 nM | – | AVFVWNYAIIRRAYC (3:MeF3C,8:3Py,13:4Py,14:MeY; linker G-de-de-de-ds-ds-KN3; ClAc-1/C15 thioether ring; C-term NH2) [894_3193] |
| – | 1 to 100 nM | – | {CH2CO}-AV[NMeF]VWNY[Phe(4-OMe)]IIR[dR]FYC-NH2 (thioether N-15; not fully specified (residue 14); also: linker PEG4c) [894_0283, listing 1 of 2 here] |
| – | 1 to 100 nM | – | {CH2CO}-AV[NMeF]VWNY[Phe(4-OMe)]II[NMeR]RFYC-NH2 (thioether N-15; not fully specified (residue 14); also: linker PEG4c) [894_0285, listing 1 of 2 here] |
| – | 1 to 100 nM | – | {CH2CO}-AV[NMeF]V[Trp(5-Cl)]NY[Phe(4-OMe)]IIR[dR]FYC-NH2 (thioether N-15; not fully specified (residue 14); also: linker PEG4c, place not given here) [894_0253] |
| – | 1 to 100 nM | – | {CH2CO}-AV[NMePhe(4-F)]V[Trp(5-Cl)]NY[Phe(4-OMe)]IIR[dR]FYC-NH2 (thioether N-15; not fully specified (residue 14); also: linker PEG4c, place not given here) [894_0258] |
| – | 1 to 100 nM | – | {CH2CO}-AV[NMePhe(4-F)]V[Trp(5-Cl)]NY[Phe(4-OMe)]II[NMeR][dR]FYC-NH2 (thioether N-15; not fully specified (residue 14); also: linker PEG4c, place not given here) [894_0259] |
| – | 1 to 100 nM | – | {CH2CO}-AV[NMePhe(4-F)]V[NMeW]NY[Phe(4-OMe)]IIR[dR]FYC-NH2 (thioether N-15; not fully specified (residue 14); also: linker PEG4c, place not given here) [894_0261] |
| – | 1 to 100 nM | – | {CH2CO}-AV[NMePhe(4-F)]V[NMeW]NY[Phe(4-OMe)]II[NMeR][dR]FYC-NH2 (thioether N-15; not fully specified (residue 14); also: linker PEG4c, place not given here) [894_0262] |
| – | 1 to 100 nM | – | {CH2CO}-AV[NMeF]VWNY[Phe(4-OMe)]IIR[dR]FYC-NH2 (thioether N-15; not fully specified (residue 14); also: linker PEG4c) [894_0283, listing 2 of 2 here] |
| – | 1 to 100 nM | – | {CH2CO}-AV[NMeF]VWNY[Phe(4-OMe)]II[NMeR]RFYC-NH2 (thioether N-15; not fully specified (residue 14); also: linker PEG4c) [894_0285, listing 2 of 2 here] |
| – | 1 to 100 nM | – | {CH2CO}-AV[NMePhe(3-Cl)]V[Trp(1-CH2CO)]NY[F4aao]IIRRFYC-NH2 (thioether N-15; not fully specified (residue 14); also: linker PEG4c) [894_0295] |
| – | 1 to 100 nM | – | {CH2CO}-AV[NMePhe(3-Cl)]V[Trp(1-CH2CO)]NY[F4aao]IIRRF[NMeY]CG[PEG8][Lys(N3)]-NH2 (thioether N-15; SMILES CC[C@H](C)[C@@H]1NC(=O)[C@H](Cc2ccc(OCC(=O)O)cc2)NC(=O)[C@H](Cc2ccc(O)cc2)NC(=O)[C@H](CC(N)=O)NC(=O)[C@H](Cc2cn(CC(=O)O)c3ccccc23)NC(=O)[C@H](C(C)C)NC(=O)[C@H](Cc2cccc(Cl)c2)N(C)C(=O)[C@H](C(C)C)NC(=O)[C@H](C)NC(=O)CSC[C@@H](C(=O)NCC(=O)NCCOCCOCCOCCOCCOCCOCCOCCOCCC(=O)N[C@@H](CCCCN=[N+]=[N-])C(N)=O)NC(=O)[C@H](Cc2ccc(O)cc2)N(C)C(=O)[C@H](Cc2ccccc2)NC(=O)[C@H](CCCNC(=N)N)NC(=O)[C@H](CCCNC(=N)N)NC(=O)[C@H]([C@@H](C)CC)NC1=O) [894_3182] |
| – | 1 to 100 nM | – | Ac-AV[NMePhe(3-Cl)]VWNY[3Pal]IIQQ[4Pal][NMeY]C (thioether (positions not given here); not fully specified (C-terminus, bridges)) [894_0327] |
| – | 1 to 100 nM | – | Ac-AV[NMePhe(3-Cl)]V[Trp(1-CH2CO)]NY[F4aao]IIRR[Phe(3-COOH)][NMeY]C (thioether (positions not given here); not fully specified (C-terminus, bridges)) [894_0342] |
